Key:
[1] = molecular target: T1, Human IL-17A重组蛋白 (IL-17A-His) (human, UniProt Q16552 24-155, biotinylated (NHS-biotin) in the ELISA of paragraph 263); test: BLI (ForteBio OCTET R2), IL-17A-His on the sensor, antibody 50-3.13 nM, 25℃
T1 construct: also called IL-17A抗原蛋白; IL-17抗原
T1 sequence: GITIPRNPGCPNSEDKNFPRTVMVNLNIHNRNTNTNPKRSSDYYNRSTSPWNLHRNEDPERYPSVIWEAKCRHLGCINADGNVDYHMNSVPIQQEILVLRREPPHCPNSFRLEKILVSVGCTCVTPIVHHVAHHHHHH

[2] = molecular target: T1, Human IL-17A重组蛋白 (IL-17A-His); test: ELISA, antibody coated at 2 ug/mL, Biotin-IL-17A-His titrated from 10 ug/mL, HRP-Streptavidin
[3] = molecular target: T1, Human IL-17A重组蛋白 (IL-17A-His); test: cell-based or functional assay

B1: Ixekizumab (antibody, human IgG4 S228P, kappa, V domains shown)
VH: QVQLVQSGAEVKKPGSSVKVSCKASGYSFTDYHIHWVRQAPGQGLEWMGVINPMYGTTDYNQRFKGRVTITADESTSTAYMELSSLRSEDTAVYYCARYDYFTGTGVYWGQGTLVTVSS
VL: DIVMTQTPLSLSVTPGQPASISCRSSRSLVHSRGNTYLHWYLQKPGQSPQLLIYKVSNRFIGVPDRFSGSGSGTDFTLKISRVEAEDVGVYYCSQSTHLPFTFGQGTKLEIKR
notes: Made in house in 293F cells from synthesised variable regions cloned into hIgG4 and hIgKc vectors; Protein A purified; also called 阳性对照抗体Ixekizumab; 阳性抗体
For B1, the Kd [1] was 0.391 nM, the EC50 [2] was 10.1 mg/L and the “IC50 of blocking Human IL-17A activation of 293F-IL-17RA-IL-17Rc-ACT1-NFκB-Luc (luciferase activity)” value [3] was 1.36 mg/L.

From patent publication CN117843805A (BEILAI PHARMACEUTICAL CO LTD, dated 2024)
